Source: patent US12286631B2, “Riboswitch modulated gene therapy for retinal diseases” (The Medical College of Wisconsin, Inc., priority 2017, dated 2025)

How the values were obtained:
HEK293T cells [1] = experiment: Optimal copy number of riboswitch, GFP plasmids, fluorescence plate reader; type: cell-based; conditions: plasmids with 0-4 copies of riboswitch, GFP transgene
Method: The protocol for both assays are outlined in FIGS. 8A and 8B. For determining optimal copy numbers, plasmids containing 0-4 copies of each riboswitch were created with the transgene as green fluorescence protein (GFP) for readout. HEK293T cells were plated in a 12-well plate and on day 2 transfected with 1 μg of each plasmid DNA. On day 3, cells were observed by fluorescent microscopy (excitation 467-498 nm) and fluorescence was quantified using a plate reader (488 nm excitation 520 nm emission).
As depicted in FIG. 9A, L2Bulge18tc riboswitch was one ON-type riboswitch tested. The cells were treated with 0 μM, 25 μM, 50 μM, 75 μM, and 100 µM of tetracycline (ligand), with the fluorescent microscopy results shown in FIG. 9D.
L2Bulge 9 was also tested (using activating ligand Theophylline), and the optimal copy number was determined to be 3.

HEK293T cells [2] = experiment: Dynamic range / dose-responsiveness to activating ligand, firefly luciferase constructs; type: cell-based; conditions: for Dynamic range compared with similar riboswitches known in the art: 0-100 μM respective ligand, with target miRNA sequence; for Dynamic Range: optimal copy number, 0-100 μM activating ligand; for Dynamic Range / Response to ligand in cell culture (firefly luminescence): HEK293T cells; for Response to ligand in cell culture (firefly luminescence): dual luciferase assay, tetracycline or theophylline
Method: The riboswitches were evaluated in HEK293T cells to determine optimal copy number (largest dynamic range) and dose-responsiveness to its activating ligand using a dual luciferase assay. The ligand used were tetracycline and theophylline.
For determining dynamic range, constructs containing firefly luciferase containing the optimal copy number of the riboswitch were made. HEK293T cells were plated on day 1, and transfected on day 2 with 1 μg of plasmid DNA. Cells were treated with 0-100 μM of the ligand corresponding to the riboswitch and the luminescence was quantified on day 3 using plate reader.
Experiments as described in Example 2A were also carried out using the newly designed Tet-SLIM and Theo-SLIM switches including target miRNA sequence, as depicted in FIGS. 12A and 13A, respectively.

mouse retina = experiment: In vivo GFP fluorescence (cSLO) after intravitreal rAAV2 GFP-riboswitch cassette and ligand gavage; parameters: species or system C57Bl/6j mice; conditions: delivered to the mouse retina using a rAAV2 vector
Method: Next, the optimal copy number of each riboswitch was cloned into a rAAV GFP reporter cassette and packaged in an AAV2 capsid. Each GFP-riboswitch cassette was injected intravitreally into C57Bl/6j mice in combination with an AAV2 control vector harboring a non-inducible mCherry reporter gene. Four weeks post-injection, mCherry and GFP fluorescence levels were quantified in vivo using a custom ‘Multiline’ confocal scanning laser ophthalmoscope (cSLO). Mice subsequently received a dose of 1000 mg/kg of its activating ligand (tetracycline, theophylline), and fluorescence levels were quantified 2 and 24 hours post-gavage.

Molecule | Optimal Copy number (HEK293T cells [1]) | Dynamic range compared with similar riboswitches known in the art (HEK293T cells [2]) | Dynamic Range (HEK293T cells [2]) | Response to ligand in vivo (mouse retina) | Response to ligand in cell culture (firefly luminescence) (HEK293T cells [2])
Tet-SLIM: tetracycline-responsive self-targeting ligand inactivating microRNA (SLIM) switch, SEQ ID NO: 17 (nucleic acid) CTAGCACGGGTCCCTAAAACATACCGTGAGCGCGAAAGCGCCCCCATTTTGAGTTAGTGAAGCCACAGATGTAACTCAAAATGGGGGCGCTTTCCCGCCTACGGAGAGGTGAAGAATACGACCACCTAGAAGCTTATTGGTACATGATAACACCCCAAAATCGAAGCACTTCAAAAACACCCCAAAATCGAAGCACTTCAAAAACACCCCAAAATCGAAGCACTTCAAAAACACCCCAAAATCGAAGCACTTCAGTCTCAGGCATCGTACGATGTCGACCTGCAGG | 1 | increased dynamic range | 2.3-fold | – | –
K19: Tetracycline ON switch riboswitch, SEQ ID NO: 15 (nucleic acid) CAAACAAACAAAGGCGCGTCCTGGATTCGTGGTAAAACATACCAGATTTCGATCTGGAGAGGTGAAGAATACGACCACCTGTAGTATCCAGCTGATGAGTCCCAAATAGGACGAAACGCGCTAAACAAACAAAC | 1 | – | 1.5-fold | responded to a ligand | responded to a ligand
L2Bulge9: Theophylline-responsive riboswitch, SEQ ID NO: 11 (nucleic acid) CTCGAGGCGATCGCAAACAAACAAAGCTGTCACCGGATGTGCTTTCCGGTCTGATGAGTCCGTTGTCCAATACCAGCATCGTCTTGATGCCCTTGGCAGTGGATGGGGACGGAGGACGAAACAGCAAAAAGAAAAATAAAAATTTTTTTTTTAATTAATCTTGGGCCC | 3 | – | 1.7-fold | responded to a ligand | responded to a ligand
GuaM8HDV: Guanine OFF switch riboswitch, SEQ ID NO: 14 (nucleic acid) ATGGCCGGCATGGTCCCAGCCTCCTCGCTGGCGCCGGCTGGGCAATGCTATAATCGCGTGGATATGGCACGCAAGTTTCTACCGGGCACCGTAAATGTCCGACTAGTAGCGAATGGGACGCACAAATCTCTCTAG | – | – | – | responded to a ligand | responded to a ligand
Theo-SLIM: theophylline-responsive self-targeting ligand inactivating microRNA (SLIM) switch, SEQ ID NO: 1 (nucleic acid) CGTATCAGCAGGTCCCATAAGCTTTCGACAATTAACGAGTGTGTACTCGTTCTATCATCTCACAGTTAAAGTCGGGAGAATAGGAGCCGCACGGGTCCTGATACCAGCGTGAGCGGAGAGAATCTTCTTTCTGTCTATTAGTGAAGCCACAGATGTAATAGACAGAAAGAAGATTCTCTCCGCCTACGCCCTTGGCAGCACCGTACGGTTCGATC | 1 | increased dynamic range | 10.9-fold | – | –
L2Bulge18tc: Tetracycline ON switch riboswitch, SEQ ID NO: 12 (nucleic acid) CTCGAGGCGATCGCAAACAAACAAAGCTGTCACCGGATGTGCTTTCCGGTCTGATGAGTCCGTTGTCCAAAACATACCAGATTTCGATCTGGAGAGGTGAAGAATTCGACCACCTGGACGAGGACGGAGGACGAAACAGCAAAAAGAAAAATAAAAATTAATTAATCTTGGGCCC | 3 | – | 4.3-fold | responded to a ligand | responded to a ligand
Theo6HDV: Theophylline OFF switch riboswitch, SEQ ID NO: 13 (nucleic acid) ATGGCCGGCATGGTCCCAGCCTCCTCGCTGGCGCCGGCTGGGCAACCACATACCAGCCGAAAGGCCCTTGGCAGGTGGGCGAATGGGACGCACAAATCTCTCTAGCTTCCCAGAGAGAAGCGAGAGAAAAGTGGCTCTC | – | – | – | responded to a ligand | responded to a ligand
